This is an account of results in PMC12342251, “HBV capsid assembly modulators differentially modulate the assembly of wild-type and drug-resistant core protein chimeric nucleocapsids and empty capsids” (PLOS Pathogens, 2025).

This series concerns the molecule itself. Nature of the series: SEC.

B1: WT-Cp149 dimer (HBV core protein residues 1-149) (domain or fragment)
chain: MDIDPYKEFGATVELLSFLPSDFFPSVRDLLDTASALYREALESPEHCSPHHTALRQAILCWGELMTLATWVGVNLEDPASRDLVVSYVNTNMGLKFRQLLWFHISCLTFGRETVIEYLVSFGVWIRTPPAYRPPNAPILSTLPETTVV
notes: source: E. coli NiCo21(DE3), purified
Take B1: the binding result is “binds”.
